Source: the supplement of paper PMC9112550, “Optimization of the antimicrobial peptide Bac7 by deep mutational scanning” (BMC Biology, 2022)

What follows are sequences tested on Escherichia coli TOP10 (assay: shrunken log2 fold change of peptide-encoding DNA abundance (4.5 h post-induction vs induction); higher = less antimicrobial activity (less host growth inhibition)). Settings: time post-induction: 4.5 h; library: site-saturation at positions 5, 18, 19, 20.
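Note: peptides expressed intracellularly from a pBAD plasmid library in pooled LB shake-flask culture, induced with 0.3% L-arabinose, DNA abundance read by NGS, three biological replicates, DESeq2 with apeglm shrinkage.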

Row | Sequence | shrunken log2 fold change
1 | RRIRYRPPRLPRPRPRPPMTPRP | -0.456
2 | RRIRYRPPRLPRPRPRPPNSPRP | -0.384
3 | RRIRYRPPRLPRPRPRPPNWPRP | -0.00249
4 | RRIRYRPPRLPRPRPRPPPRPRP | 1.5
5 | RRIRYRPPRLPRPRPRPPPTPRP | 0.867
6 | RRIRYRPPRLPRPRPRPPRHPRP | 0.00412
7 | RRIRYRPPRLPRPRPRPPRVPRP | -0.0115
8 | RRIRYRPPRLPRPRPRPPSPPRP | 0.398
9 | RRIRYRPPRLPRPRPRPPTGPRP | 0.0896
10 | RRIRYRPPRLPRPRPRPPTSPRP | -0.0241
11 | RRIRYRPPRLPRPRPRPPTTPRP | -0.165
12 | RRIRYRPPRLPRPRPRPPTWPRP | -0.0624
13 | RRIRYRPPRLPRPRPRPPYCPRP | -0.287
14 | RRIRYRPPRLPRPRPRPQCGPRP | -0.46
15 | RRIRYRPPRLPRPRPRPQCYPRP | -0.0301
16 | RRIRYRPPRLPRPRPRPQGNPRP | -0.0344
17 | RRIRYRPPRLPRPRPRPQICPRP | -0.00591
18 | RRIRYRPPRLPRPRPRPQIHPRP | -1.2
19 | RRIRYRPPRLPRPRPRPQIIPRP | -0.248
20 | RRIRYRPPRLPRPRPRPQISPRP | -0.0191
21 | RRIRYRPPRLPRPRPRPQIVPRP | -0.342
22 | RRIRYRPPRLPRPRPRPQLIPRP | -0.3
23 | RRIRYRPPRLPRPRPRPQNEPRP | -0.483
24 | RRIRYRPPRLPRPRPRPQNIPRP | -1.24
25 | RRIRYRPPRLPRPRPRPQNKPRP | -0.969

Row | Sequence | shrunken log2 fold change
26 | RRIRYRPPRLPRPRPRPQPVPRP | -0.258
27 | RRIRYRPPRLPRPRPRPQPYPRP | -0.649
28 | RRIRYRPPRLPRPRPRPQREPRP | -0.00996
29 | RRIRYRPPRLPRPRPRPQRVPRP | -0.393
30 | RRIRYRPPRLPRPRPRPQSCPRP | 0.0148
31 | RRIRYRPPRLPRPRPRPQTHPRP | -1.08
32 | RRIRYRPPRLPRPRPRPQTQPRP | -0.275
33 | RRIRYRPPRLPRPRPRPQVQPRP | -0.0106
34 | RRIRYRPPRLPRPRPRPQVVPRP | -0.166
35 | RRIRYRPPRLPRPRPRPQVYPRP | -0.169
36 | RRIRYRPPRLPRPRPRPQWGPRP | 0.122
37 | RRIRYRPPRLPRPRPRPQYTPRP | -1.34
38 | RRIRYRPPRLPRPRPRPQYWPRP | -0.696
39 | RRIRYRPPRLPRPRPRPRACPRP | -0.143
40 | RRIRYRPPRLPRPRPRPRAWPRP | -0.214
41 | RRIRYRPPRLPRPRPRPRCAPRP | -0.199
42 | RRIRYRPPRLPRPRPRPRCFPRP | -0.152
43 | RRIRYRPPRLPRPRPRPRCRPRP | -0.26
44 | RRIRYRPPRLPRPRPRPRCTPRP | -0.407
45 | RRIRYRPPRLPRPRPRPRDKPRP | -0.667
46 | RRIRYRPPRLPRPRPRPRDNPRP | -0.712
47 | RRIRYRPPRLPRPRPRPREMPRP | -0.126
48 | RRIRYRPPRLPRPRPRPRETPRP | -0.0404
49 | RRIRYRPPRLPRPRPRPRHEPRP | -0.802
50 | RRIRYRPPRLPRPRPRPRIMPRP | -1.06

Row | Sequence | shrunken log2 fold change
51 | RRIRYRPPRLPRPRPRPRIQPRP | -0.203
52 | RRIRYRPPRLPRPRPRPRKIPRP | -0.483
53 | RRIRYRPPRLPRPRPRPRQEPRP | -0.0183
54 | RRIRYRPPRLPRPRPRPRQIPRP | -0.137
55 | RRIRYRPPRLPRPRPRPRYKPRP | -0.451
56 | RRIRYRPPRLPRPRPRPSADPRP | -0.18
57 | RRIRYRPPRLPRPRPRPSAPPRP | -0.353
58 | RRIRYRPPRLPRPRPRPSATPRP | -0.104
59 | RRIRYRPPRLPRPRPRPSAVPRP | -0.175
60 | RRIRYRPPRLPRPRPRPSCCPRP | -0.472
61 | RRIRYRPPRLPRPRPRPSCWPRP | -0.349
62 | RRIRYRPPRLPRPRPRPSDPPRP | -0.374
63 | RRIRYRPPRLPRPRPRPSFQPRP | -1.13
64 | RRIRYRPPRLPRPRPRPSGMPRP | -0.0611
65 | RRIRYRPPRLPRPRPRPSHWPRP | -0.225
66 | RRIRYRPPRLPRPRPRPSKSPRP | -0.257
67 | RRIRYRPPRLPRPRPRPSLVPRP | -0.291
68 | RRIRYRPPRLPRPRPRPSPNPRP | -1.34
69 | RRIRYRPPRLPRPRPRPSPPPRP | -0.469
70 | RRIRYRPPRLPRPRPRPSPQPRP | -0.195
71 | RRIRYRPPRLPRPRPRPSQAPRP | -0.0185
72 | RRIRYRPPRLPRPRPRPSSIPRP | -0.141
73 | RRIRYRPPRLPRPRPRPSTIPRP | -0.324
74 | RRIRYRPPRLPRPRPRPSVLPRP | -0.444
75 | RRIRYRPPRLPRPRPRPSVPPRP | -0.497

Row | Sequence | shrunken log2 fold change
76 | RRIRYRPPRLPRPRPRPSVQPRP | -0.065
77 | RRIRYRPPRLPRPRPRPSWIPRP | -0.341
78 | RRIRYRPPRLPRPRPRPSWNPRP | -1.04
79 | RRIRYRPPRLPRPRPRPSWRPRP | -0.137
80 | RRIRYRPPRLPRPRPRPTCDPRP | -0.424
81 | RRIRYRPPRLPRPRPRPTCPPRP | -0.434
82 | RRIRYRPPRLPRPRPRPTDHPRP | -0.254
83 | RRIRYRPPRLPRPRPRPTEAPRP | 0.0329
84 | RRIRYRPPRLPRPRPRPTEDPRP | -0.166
85 | RRIRYRPPRLPRPRPRPTGEPRP | -0.0166
86 | RRIRYRPPRLPRPRPRPTHGPRP | -0.1
87 | RRIRYRPPRLPRPRPRPTKEPRP | -0.00889
88 | RRIRYRPPRLPRPRPRPTLAPRP | 0.239
89 | RRIRYRPPRLPRPRPRPTLCPRP | -0.239
90 | RRIRYRPPRLPRPRPRPTLLPRP | -0.703
91 | RRIRYRPPRLPRPRPRPTLMPRP | -0.301
92 | RRIRYRPPRLPRPRPRPTLRPRP | -0.484
93 | RRIRYRPPRLPRPRPRPTMCPRP | -0.159
94 | RRIRYRPPRLPRPRPRPTMLPRP | -0.54
95 | RRIRYRPPRLPRPRPRPTNLPRP | -0.661
96 | RRIRYRPPRLPRPRPRPTPHPRP | -0.181
97 | RRIRYRPPRLPRPRPRPTQPPRP | 0.409
98 | RRIRYRPPRLPRPRPRPTRAPRP | 0.144
99 | RRIRYRPPRLPRPRPRPTREPRP | -0.145
100 | RRIRYRPPRLPRPRPRPTTGPRP | -0.549

Row | Sequence | shrunken log2 fold change
101 | RRIRYRPPRLPRPRPRPTVCPRP | -0.0618
102 | RRIRYRPPRLPRPRPRPTVSPRP | -0.288
103 | RRIRYRPPRLPRPRPRPTWCPRP | -0.544
104 | RRIRYRPPRLPRPRPRPTWYPRP | -0.168
105 | RRIRYRPPRLPRPRPRPTYQPRP | -0.00459
106 | RRIRYRPPRLPRPRPRPVAAPRP | 0.149
107 | RRIRYRPPRLPRPRPRPVALPRP | -0.404
108 | RRIRYRPPRLPRPRPRPVCSPRP | -0.484
109 | RRIRYRPPRLPRPRPRPVDMPRP | -0.0154
110 | RRIRYRPPRLPRPRPRPVERPRP | 0.00806
111 | RRIRYRPPRLPRPRPRPVESPRP | -0.0746
112 | RRIRYRPPRLPRPRPRPVGIPRP | 0.177
113 | RRIRYRPPRLPRPRPRPVHPPRP | -0.186
114 | RRIRYRPPRLPRPRPRPVHYPRP | -0.0657
115 | RRIRYRPPRLPRPRPRPVKAPRP | -0.0854
116 | RRIRYRPPRLPRPRPRPVLNPRP | -0.258
117 | RRIRYRPPRLPRPRPRPVLPPRP | -0.511
118 | RRIRYRPPRLPRPRPRPVNHPRP | -0.073
119 | RRIRYRPPRLPRPRPRPVNQPRP | -0.058
120 | RRIRYRPPRLPRPRPRPVNWPRP | -0.0321
121 | RRIRYRPPRLPRPRPRPVQFPRP | -0.00142
122 | RRIRYRPPRLPRPRPRPVQIPRP | -0.146
123 | RRIRYRPPRLPRPRPRPVQQPRP | -0.00101
124 | RRIRYRPPRLPRPRPRPVQYPRP | -0.0125
125 | RRIRYRPPRLPRPRPRPVRYPRP | -0.157

Row | Sequence | shrunken log2 fold change
126 | RRIRYRPPRLPRPRPRPVVSPRP | -0.595
127 | RRIRYRPPRLPRPRPRPVWHPRP | -0.0131
128 | RRIRYRPPRLPRPRPRPVWTPRP | 0.0188
129 | RRIRYRPPRLPRPRPRPVYHPRP | -0.586
130 | RRIRYRPPRLPRPRPRPWAEPRP | 0.0276
131 | RRIRYRPPRLPRPRPRPWCCPRP | -0.207
132 | RRIRYRPPRLPRPRPRPWFGPRP | -0.0933
133 | RRIRYRPPRLPRPRPRPWFPPRP | -0.523
134 | RRIRYRPPRLPRPRPRPWGLPRP | -0.0143
135 | RRIRYRPPRLPRPRPRPWGSPRP | -0.482
136 | RRIRYRPPRLPRPRPRPWHMPRP | -0.311
137 | RRIRYRPPRLPRPRPRPWIRPRP | -0.371
138 | RRIRYRPPRLPRPRPRPWKVPRP | -0.498
139 | RRIRYRPPRLPRPRPRPWNFPRP | -0.00304
140 | RRIRYRPPRLPRPRPRPWNHPRP | -0.00776
141 | RRIRYRPPRLPRPRPRPWPFPRP | -0.218
142 | RRIRYRPPRLPRPRPRPWPQPRP | 0.0526
143 | RRIRYRPPRLPRPRPRPWQDPRP | -0.122
144 | RRIRYRPPRLPRPRPRPWQNPRP | -0.103
145 | RRIRYRPPRLPRPRPRPWREPRP | 0.0494
146 | RRIRYRPPRLPRPRPRPWRVPRP | 0.0112
147 | RRIRYRPPRLPRPRPRPWRYPRP | 0.026
148 | RRIRYRPPRLPRPRPRPWTAPRP | -0.283
149 | RRIRYRPPRLPRPRPRPWVQPRP | -0.544
150 | RRIRYRPPRLPRPRPRPWWFPRP | -0.195
